Columns and labels:
[1] = target: Synthetic human type I collagen
[2] = target: T1, Synthetic human type III collagen
T1 chain: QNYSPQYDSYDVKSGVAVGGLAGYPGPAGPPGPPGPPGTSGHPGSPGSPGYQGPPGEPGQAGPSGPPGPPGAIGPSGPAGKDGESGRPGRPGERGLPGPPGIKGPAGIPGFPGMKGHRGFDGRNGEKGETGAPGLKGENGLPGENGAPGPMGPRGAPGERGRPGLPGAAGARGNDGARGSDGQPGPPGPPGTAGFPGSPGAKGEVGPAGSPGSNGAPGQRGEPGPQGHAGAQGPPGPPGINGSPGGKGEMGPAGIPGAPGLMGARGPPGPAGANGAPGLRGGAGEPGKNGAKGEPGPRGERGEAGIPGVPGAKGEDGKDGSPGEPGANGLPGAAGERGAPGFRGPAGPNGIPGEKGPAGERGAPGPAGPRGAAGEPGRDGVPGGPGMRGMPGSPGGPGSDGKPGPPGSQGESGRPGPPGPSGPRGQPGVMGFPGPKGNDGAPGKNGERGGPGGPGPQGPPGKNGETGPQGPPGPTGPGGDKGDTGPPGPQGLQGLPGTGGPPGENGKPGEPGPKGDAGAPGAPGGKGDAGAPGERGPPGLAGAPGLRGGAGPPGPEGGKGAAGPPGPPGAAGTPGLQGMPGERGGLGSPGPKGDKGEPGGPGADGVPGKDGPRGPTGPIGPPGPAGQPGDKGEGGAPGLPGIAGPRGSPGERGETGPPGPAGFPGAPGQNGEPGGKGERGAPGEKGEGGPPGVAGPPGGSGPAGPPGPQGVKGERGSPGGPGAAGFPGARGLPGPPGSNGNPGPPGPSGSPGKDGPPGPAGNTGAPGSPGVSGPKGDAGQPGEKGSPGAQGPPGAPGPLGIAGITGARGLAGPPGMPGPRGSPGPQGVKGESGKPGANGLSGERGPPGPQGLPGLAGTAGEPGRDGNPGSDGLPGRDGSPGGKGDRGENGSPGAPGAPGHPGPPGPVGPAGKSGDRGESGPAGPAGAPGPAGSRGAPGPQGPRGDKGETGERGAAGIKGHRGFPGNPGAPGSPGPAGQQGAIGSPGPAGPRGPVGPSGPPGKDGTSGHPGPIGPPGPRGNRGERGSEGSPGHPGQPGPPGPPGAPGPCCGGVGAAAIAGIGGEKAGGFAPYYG

Synthetic human type I collagen, sequence (chain, as listed by the source, chain 1 of 2): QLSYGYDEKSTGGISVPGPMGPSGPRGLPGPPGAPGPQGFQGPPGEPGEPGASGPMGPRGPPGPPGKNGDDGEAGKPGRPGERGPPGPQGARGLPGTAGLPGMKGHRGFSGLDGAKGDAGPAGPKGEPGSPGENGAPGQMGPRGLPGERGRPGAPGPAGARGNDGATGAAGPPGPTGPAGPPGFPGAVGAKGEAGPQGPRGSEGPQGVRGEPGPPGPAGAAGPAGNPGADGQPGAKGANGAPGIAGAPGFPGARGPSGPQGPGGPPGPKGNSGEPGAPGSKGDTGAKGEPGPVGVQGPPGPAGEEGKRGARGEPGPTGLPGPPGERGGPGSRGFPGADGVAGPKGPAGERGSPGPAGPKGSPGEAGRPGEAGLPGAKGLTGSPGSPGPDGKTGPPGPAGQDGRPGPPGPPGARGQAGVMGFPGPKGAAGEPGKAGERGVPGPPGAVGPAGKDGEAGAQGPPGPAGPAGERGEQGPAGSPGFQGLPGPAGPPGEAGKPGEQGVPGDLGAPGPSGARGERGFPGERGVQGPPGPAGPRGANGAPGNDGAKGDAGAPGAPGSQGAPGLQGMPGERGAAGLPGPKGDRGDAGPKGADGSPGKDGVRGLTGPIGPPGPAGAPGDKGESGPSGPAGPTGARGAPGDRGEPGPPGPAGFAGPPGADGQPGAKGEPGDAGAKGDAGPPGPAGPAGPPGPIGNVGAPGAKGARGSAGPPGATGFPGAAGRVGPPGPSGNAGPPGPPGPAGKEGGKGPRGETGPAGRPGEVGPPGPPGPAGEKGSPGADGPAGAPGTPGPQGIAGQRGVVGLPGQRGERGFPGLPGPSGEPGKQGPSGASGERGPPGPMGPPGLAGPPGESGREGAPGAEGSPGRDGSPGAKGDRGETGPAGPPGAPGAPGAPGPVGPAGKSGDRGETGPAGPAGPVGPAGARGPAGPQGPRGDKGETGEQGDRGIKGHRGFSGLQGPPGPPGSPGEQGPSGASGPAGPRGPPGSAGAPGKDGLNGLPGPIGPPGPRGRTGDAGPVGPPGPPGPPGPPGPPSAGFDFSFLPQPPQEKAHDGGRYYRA
Synthetic human type I collagen, sequence (chain, as listed by the source, chain 2 of 2): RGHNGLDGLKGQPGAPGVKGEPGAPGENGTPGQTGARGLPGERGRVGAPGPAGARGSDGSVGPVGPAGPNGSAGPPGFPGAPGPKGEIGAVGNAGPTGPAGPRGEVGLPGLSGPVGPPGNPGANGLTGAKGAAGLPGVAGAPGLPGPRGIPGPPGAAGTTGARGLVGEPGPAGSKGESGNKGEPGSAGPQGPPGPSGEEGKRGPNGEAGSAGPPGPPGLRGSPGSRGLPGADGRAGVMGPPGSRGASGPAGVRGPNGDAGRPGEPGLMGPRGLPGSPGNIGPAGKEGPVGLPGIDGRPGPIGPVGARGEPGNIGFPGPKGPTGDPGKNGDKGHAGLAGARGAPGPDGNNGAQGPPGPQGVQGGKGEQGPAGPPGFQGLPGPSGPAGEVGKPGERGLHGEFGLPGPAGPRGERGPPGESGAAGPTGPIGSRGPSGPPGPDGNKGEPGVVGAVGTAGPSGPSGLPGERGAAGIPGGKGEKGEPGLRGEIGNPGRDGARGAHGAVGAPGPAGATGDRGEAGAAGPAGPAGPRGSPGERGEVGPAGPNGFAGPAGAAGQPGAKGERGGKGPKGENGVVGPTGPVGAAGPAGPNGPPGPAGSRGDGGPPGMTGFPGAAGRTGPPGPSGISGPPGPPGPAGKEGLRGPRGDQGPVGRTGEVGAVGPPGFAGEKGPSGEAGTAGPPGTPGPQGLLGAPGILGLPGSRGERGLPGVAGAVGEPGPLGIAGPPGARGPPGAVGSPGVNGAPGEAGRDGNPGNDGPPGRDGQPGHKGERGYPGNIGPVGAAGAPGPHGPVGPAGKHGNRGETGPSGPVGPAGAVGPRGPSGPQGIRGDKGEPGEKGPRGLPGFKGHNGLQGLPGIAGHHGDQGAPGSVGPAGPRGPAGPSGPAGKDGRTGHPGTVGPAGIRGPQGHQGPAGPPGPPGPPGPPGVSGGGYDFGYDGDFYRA

B1: MMP-1 (collagenase 1, fibroblast collagenase) (protein)
chain: FVLTEGNPRWEQTHLTYRIENYTPDLPRADVDHAIEKAFQLWSNVTPLTFTKVSEGQADIMISFVRGDHRDNSPFDGPGGNLAHAFQPGPGIGGDAHFDEDERWTNNFREYNLHRVAAHELGHSLGLSHSTDIGALMYPSYTFSGDVQLAQDDIDGIQAIYGRSQNPVQPIGPQTPKACDSKLTFDAITTIRGEVMFFKDRFYMRTNPFYPEVELNFISVFWPQLPNGLEAAYEFADRDEVRFFKGNKYWAVQGQNVLHGYPKDIYSSFGFPRTVKHIDAALSEENTGKTYFFVANKYWRYDEYKRSMDPGYPKMIAHDFPGIGHKVDAVFMKDGFFYFFHGTRQYKFDPKTKRILTLQKANSWFNCRKN
With B1 the “cleavage of collagen (SDS-PAGE after 1, 2 and 7 days at 37 C)” value [1] was “both synthetic human type I and type III collagen were cleaved by MMP-1 (FIG. 1A) and MMP-8 (FIG. 1B)”, the “cleavage of collagen (SDS-PAGE after 1, 2 and 7 days at 37 C)” value [2] was “both synthetic human type I and type III collagen were cleaved by MMP-1 (FIG. 1A) and MMP-8 (FIG. 1B)” and the “extent of degradation of collagen (SDS-PAGE)” value [2] was “Synthetic human type III collagen was degraded by MMP-1 to a greater extent than by MMP-8”.

Source: patent US20060100138
